The values below come from PMC6609874, “MeABL5, an ABA Insensitive 5-Like Basic Leucine Zipper Transcription Factor, Positively Regulates MeCWINV3 in Cassava (Manihot esculenta Crantz)”.

The target in this data set is T1, MeABL5 (Manihot esculenta Crantz, UniProt A0A411G151).
T1 sequence: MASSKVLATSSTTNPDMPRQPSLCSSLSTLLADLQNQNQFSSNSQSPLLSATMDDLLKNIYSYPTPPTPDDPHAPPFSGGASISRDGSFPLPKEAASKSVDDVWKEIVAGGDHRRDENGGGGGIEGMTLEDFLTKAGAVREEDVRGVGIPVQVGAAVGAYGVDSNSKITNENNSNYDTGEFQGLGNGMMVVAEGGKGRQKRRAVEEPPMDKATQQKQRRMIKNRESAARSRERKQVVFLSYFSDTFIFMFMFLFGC
In words: EMSA; 250 ng protein, 500 ng DNA; EMSA kit (Invitrogen), room temperature 30 min, 500 ng DNA, 0-250 ng protein, PAGE with SYBR Green/SYPRO Ruby stain; buffer, salt and pH not stated. The note with it: protein: recombinant; tags: MBP (pET28a-MBP) removed by TEV protease; Ni column purified; chain copies: 2; label: none (SYBR Green stain); annealed duplex. (In EMSA bound probe runs differently from free probe, usually more slowly.)

B1: pMeCWINV3-WT 60 bp (dsDNA)
DNA 1: ATCGTTGACATGTGAGTATTTGACGTATCCACGTGGGAAAGGGAAGAAAAACAACATTGA
DNA 2: TCAATGTTGTTTTTCTTCCCTTTCCCACGTGGATACGTCAAATACTCACATGTCAACGAT
Take B1: the binding result is “binds”.

B2: pMeCWINV3-MT 54 bp (CACGTG deleted) (dsDNA)
DNA 1: ATCGTTGACATGTGAGTATTTGACGTATCGGAAAGGGAAGAAAAACAACATTGA
DNA 2: TCAATGTTGTTTTTCTTCCCTTTCCGATACGTCAAATACTCACATGTCAACGAT
Consider B2, for which the binding result was “no binding”.
